Measurements published in patent publication US20220010284A1 (TRUSTEES OF PRINCETON UNIVERSITY, published 2022).

Assays:
[1] = test system: Gp59 (cI repressor, phage VP882) (Vibrio phage VP882); assay: cell_activity; conditions: Pq-lux in E. coli, arabinose induced; direct binding inferred
[2] = biological target: T1, lambda HALO-cI (HIS-HALO-cIlambda) (phage lambda, UniProt P03034 2-237); assay: confocal microscopy of HALO-cI localization in E. coli co-expressing Qtip
T1 construct: also called lambda cI; lambda repressor; not shown: N-terminal HIS-HALO tag and linker from vector pH6HTN
T1 sequence: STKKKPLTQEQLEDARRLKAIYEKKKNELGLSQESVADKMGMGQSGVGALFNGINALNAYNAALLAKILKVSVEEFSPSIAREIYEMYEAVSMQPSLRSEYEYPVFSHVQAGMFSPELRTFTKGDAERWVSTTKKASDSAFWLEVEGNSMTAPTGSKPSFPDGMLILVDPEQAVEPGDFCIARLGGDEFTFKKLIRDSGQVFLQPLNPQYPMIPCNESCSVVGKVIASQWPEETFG

[3] = biological target: T1, lambda HALO-cI (HIS-HALO-cIlambda); assay: confocal microscopy of HALO-cI localization in E. coli with induced orf584

## Pq (q/gp62 promoter)
[1]
  activity (fold repression): 140

B1: Qtip (Gp55 of phage VP882, quorum triggered inactivator of cI protein) (other)
chain: MCDFCSEHIDSLDALQSSLEKGTAIIELLDTALSAGIEVSPRVVSCALSAAHQHLQVSEKINRSLQIGCGSKEVLRLVD
notes: also called phage VP882 Qtip; pTetA-qtip
[2]
  binding result: no binding

B2: ORF584 (Qtip-like protein of phage MJ1) (other)
chain: MDLRVSNAKDLLDKFEEKAVQMESISQLLANAPEDLTLATVQGSLSALASIARDAGEAADRLRTISSAEG
notes: also called phage MJ1 orf584; pTetA-orf584
[3]
  binding result: no binding
